From PMC3725403

Target: Arg224 (UniProt position 224, YHALYRYFVEL)
Test: electrophysiology

TASK-2 (K2P5.1) two-pore domain K+ channel (Mus musculus)
pKa (bath: 135 mM sodium gluconate, 1 mM potassium gluconate, 4 mM KCl, 2 mM CaCl2, 1 mM MgCl2, 105 mM sucrose, pipette: 8 mM KCl, 132 mM potassium gluconate, 1 mM MgCl2, 10 mM EGTA, 1 mM Na3ATP, 0.1 mM GT, 10 mM HEPES/Tris, 0 mV value from a fit across voltages, [K+]i/[K+]o 140/5 mM, intracellular pH 7.4): 8.37 | pKa (bath: 135 mM sodium gluconate, 1 mM potassium gluconate, 4 mM KCl, 2 mM CaCl2, 1 mM MgCl2, 105 mM sucrose, pipette: 8 mM KCl, 132 mM potassium gluconate, 1 mM MgCl2, 10 mM EGTA, 1 mM Na3ATP, 0.1 mM GT, 10 mM HEPES/Tris, membrane potential +60 mV, [K+]i/[K+]o 140/5 mM, intracellular pH 7.4): 8.15 | pKa (bath: 135 mM sodium gluconate, 1 mM potassium gluconate, 4 mM KCl, 2 mM CaCl2, 1 mM MgCl2, 105 mM sucrose, pipette: 8 mM KCl, 132 mM potassium gluconate, 1 mM MgCl2, 10 mM EGTA, 1 mM Na3ATP, 0.1 mM GT, 10 mM HEPES/Tris, membrane potential -120 mV, [K+]i/[K+]o 140/5 mM, intracellular pH 7.4): 8.76 | pKa (not stated, most extracellular Cl- replaced by sulphate, extracellular solution with most Cl- replaced by sulphate, voltage not stated, cited from earlier work): 8.0
